Data on 167 variants can be found in the Human Domainome abundance scans (Beltran et al. 2025).

± gives the uncertainty stated by the source.

B1: POU domain, class 5, transcription factor 1, residues 134 to 212; numbered along this chain, Q01860 (parent)
chain: EESQDIKALQKELEQFAKLLKQKRITLGYTQADVGLTLGVLFGKVFSQTTICRFEALQLSFKNMCKLRPLLQKWVEEAD

The variants in the data set derive from B1. Briefly: abundance fitness (aPCA) (normalised: wild type 0, dead -1); higher = more abundant; growth selection in yeast, the domain comes from the species named. The following applies: Homo sapiens.
In the case of R24V, the abundance fitness was -0.068 ± 0.22.
Consider R24A, for which the abundance fitness was -0.859 ± 0.47.
On to I51K, for which the abundance fitness was -0.067 ± 0.44.
On to I51A, for which the abundance fitness was -0.916 ± 0.42.
As for C52Y, the abundance fitness was -0.604 ± 0.4.
In the case of C52E, the abundance fitness turned out to be 0.086 ± 0.31.
On to R68P, for which the abundance fitness is -0.734 ± 0.33.
Consider V45W, for which the abundance fitness is -0.143 ± 0.058.
For the variant V45P, the abundance fitness came out at 0.12 ± 0.077.
The same measure for V45K: 0.085 ± 0.1; for V45H: 0.013 ± 0.082; for V45Q: 0.044 ± 0.091.
To V45T belongs -0.005 ± 0.11; to V45R, 0.036 ± 0.049; to V45E, 0.16 ± 0.05.
As for K62C, the abundance fitness is -0.489 ± 0.44.
The same measure for K62P: -0.08 ± 0.24.
For K62V, the abundance fitness is -0.24 ± 0.14.
For the variant K44G, the abundance fitness was -0.382 ± 0.079.
To K44V belongs -0.441 ± 0.11; to K44D, -0.262 ± 0.2.
For K44C, the abundance fitness is -0.381 ± 0.18.
Turning to K44S, the abundance fitness is -0.805 ± 0.33.
Turning to K44H, the abundance fitness was -0.181 ± 0.27.
For K18W, the abundance fitness is -0.19 ± 0.18.
Regarding K18Q, the abundance fitness is 0.029 ± 0.19.
For the variant K18H, the abundance fitness is -0.523 ± 0.48.
The same measure for K18V: -0.466 ± 0.16; for K18E: -0.415 ± 0.2.
The same measure for L19K: 0.373 ± 0.26.
L19A: the abundance fitness is -0.49 ± 0.35.
For L19T, the abundance fitness was -0.49 ± 0.32.
On to L19Q, for which the abundance fitness came to 0.04 ± 0.36.
Take L19G: the abundance fitness was -0.063 ± 0.13.
For G43S, the abundance fitness was -0.651 ± 0.46.
The same measure for G43R: -0.613 ± 0.17; for Q31E: 0.276 ± 0.1; for Q31W: 0.078 ± 0.12.
In the case of Q31D, the abundance fitness is -0.126 ± 0.33.
The same measure for Q31Y: 0.323 ± 0.27.
On to L71H, for which the abundance fitness is -0.207 ± 0.24.
The same measure for L71S: -0.911 ± 0.26.
The same measure for L71A: -0.51 ± 0.13; for L71M: -0.251 ± 0.13; for L71W: -0.323 ± 0.15.
L71D: the abundance fitness is -0.869 ± 0.42.
E77Y: the abundance fitness came to 0.096 ± 0.18.
The same measure for E77K: -0.074 ± 0.17; for E77P: -0.264 ± 0.17; for E77R: -0.108 ± 0.078.
For the variant G28W, the abundance fitness is -0.813 ± 0.33.
As for G28R, the abundance fitness is -0.555 ± 0.13.
With G28A, the abundance fitness was -1.06 ± 0.3.
To G28T belongs -0.738 ± 0.37; to Q10D, -0.128 ± 0.18; to Q10S, -0.111 ± 0.097.
Q10G: the abundance fitness is -0.239 ± 0.082.
With Q10P, the abundance fitness is -0.214 ± 0.17.
As to V75C, the abundance fitness is -0.343 ± 0.26.
Turning to V75G, the abundance fitness was -0.645 ± 0.29.
On to V75P, for which the abundance fitness was -0.203 ± 0.24.
Turning to V75H, the abundance fitness is -0.025 ± 0.36.
With F16P, the abundance fitness was -0.023 ± 0.34.
On to F16G, for which the abundance fitness is -0.522 ± 0.23.
F16W: the abundance fitness is -0.341 ± 0.3.
As to F16C, the abundance fitness was -0.23 ± 0.21.
Regarding E1L, the abundance fitness is -0.135 ± 0.23.
As to E1M, the abundance fitness is 0.273 ± 0.15.
Regarding E1G, the abundance fitness is 0.053 ± 0.073.
Take E1S: the abundance fitness is -0.58 ± 0.45.
K23A: the abundance fitness is -0.608 ± 0.33.
The same measure for K23Q: -0.256 ± 0.46; for K23T: -0.384 ± 0.27.
With S47T, the abundance fitness is -0.169 ± 0.24.
In the case of S47R, the abundance fitness is -0.469 ± 0.15.
As to S47L, the abundance fitness was -0.756 ± 0.35.
Turning to S47D, the abundance fitness is -0.323 ± 0.28.
The same measure for S47Q: -0.196 ± 0.32; for F61L: 0.036 ± 0.12.
Turning to F61Y, the abundance fitness was -0.09 ± 0.5.
On to A17G, for which the abundance fitness was 0.11 ± 0.13.
In the case of A17V, the abundance fitness is -0.145 ± 0.42.
The same measure for G39P: -0.325 ± 0.27; for G39K: -0.187 ± 0.24.
In the case of G39W, the abundance fitness was -0.712 ± 0.33.
G35Q: the abundance fitness is -0.039 ± 0.25.
Regarding G35C, the abundance fitness was -0.64 ± 0.32.
For G35L, the abundance fitness is -0.769 ± 0.46.
With W74F, the abundance fitness was -0.131 ± 0.47.
Turning to W74V, the abundance fitness was -0.264 ± 0.3.
Regarding E14F, the abundance fitness is -0.056 ± 0.14.
With E14D, the abundance fitness was -0.533 ± 0.39.
For the variant E14Q, the abundance fitness was -0.05 ± 0.14.
As to E14P, the abundance fitness is -0.613 ± 0.29.
Consider E14R, for which the abundance fitness is 0.063 ± 0.081.
Take E14L: the abundance fitness was -0.168 ± 0.11.
To E14H belongs -0.037 ± 0.16; to I25K, -0.131 ± 0.47.
As to E12M, the abundance fitness is -0.38 ± 0.24.
Turning to E12H, the abundance fitness was -0.051 ± 0.4.
As for E12W, the abundance fitness is -0.226 ± 0.1.
With E12A, the abundance fitness was -0.345 ± 0.14.
For E12P, the abundance fitness is -0.473 ± 0.42.
Take E12T: the abundance fitness is -0.405 ± 0.17.
On to E12G, for which the abundance fitness was -0.35 ± 0.084.
On to A32N, for which the abundance fitness is -0.193 ± 0.33.
Turning to A32E, the abundance fitness is -0.024 ± 0.15.
For the variant A32T, the abundance fitness is -0.06 ± 0.21.
For the variant V40L, the abundance fitness is -0.045 ± 0.13.
Take V40W: the abundance fitness is -0.151 ± 0.14.
For V40E, the abundance fitness was found to be 0.1 ± 0.13.
Turning to V40K, the abundance fitness was 0.198 ± 0.16.
As to F42Q, the abundance fitness was -0.875 ± 0.24.
For the variant F42M, the abundance fitness is -0.607 ± 0.15.
As to F42P, the abundance fitness is -0.654 ± 0.15.
In the case of F42Y, the abundance fitness is -0.028 ± 0.27.
To F42T belongs 0.166 ± 0.07; to F42I, -0.49 ± 0.19.
For F42K, the abundance fitness was -0.262 ± 0.098.
Consider F42E, for which the abundance fitness is -0.493 ± 0.096.
With F42W, the abundance fitness is -0.165 ± 0.08.
Turning to L38K, the abundance fitness was -0.603 ± 0.31.
To L38M belongs 0.185 ± 0.15; to L38P, -0.662 ± 0.41.
On to F46W, for which the abundance fitness is -0.398 ± 0.19.
For F46M, the abundance fitness came out at 0.023 ± 0.17.
In the case of F46D, the abundance fitness worked out at 0.136 ± 0.19.
In the case of F46C, the abundance fitness stood at 0.311 ± 0.14.
To F46G belongs -0.714 ± 0.16; to F46V, 0.411 ± 0.074; to K73P, -0.506 ± 0.21.
As for K73M, the abundance fitness is -0.799 ± 0.28.
As to K73F, the abundance fitness is -0.566 ± 0.34.
To K73H belongs -0.349 ± 0.33.
On to T49F, for which the abundance fitness is -0.432 ± 0.46.
To T49S belongs -0.072 ± 0.11; to T49H, 0.109 ± 0.21.
The same measure for T49W: -0.259 ± 0.15; for D79P: 0.393 ± 0.19; for D79V: 0.111 ± 0.13.
Consider D79Y, for which the abundance fitness is -0.505 ± 0.49.
Regarding L20P, the abundance fitness is -0.303 ± 0.24.
The same measure for L20M: -0.452 ± 0.39; for L20W: -0.741 ± 0.38; for L27P: -0.274 ± 0.2.
Take L27R: the abundance fitness is -0.345 ± 0.1.
As to L27G, the abundance fitness was -0.387 ± 0.1.
To Y29V belongs -0.216 ± 0.089.
On to Y29P, for which the abundance fitness is -0.407 ± 0.24.
The same measure for Y29G: -0.56 ± 0.14.
In the case of D33M, the abundance fitness was -0.497 ± 0.34.
On to D33V, for which the abundance fitness is -1.19 ± 0.42.
For D33T, the abundance fitness was -1.08 ± 0.5.
Turning to D33S, the abundance fitness was -0.572 ± 0.19.
To D33K belongs 0.128 ± 0.2; to D33F, -0.407 ± 0.31.
With Q48L, the abundance fitness was -0.435 ± 0.35.
Take Q48F: the abundance fitness is -0.343 ± 0.41.
Consider Q48R, for which the abundance fitness stood at 0.126 ± 0.1.
Regarding Q48M, the abundance fitness worked out at 0.348 ± 0.35.
To Q48A belongs 0.162 ± 0.15; to Q48K, 0.079 ± 0.31.
In the case of Q72H, the abundance fitness was -0.039 ± 0.28.
To Q72K belongs -0.025 ± 0.18; to Q72S, -0.371 ± 0.15.
In the case of Q72R, the abundance fitness is -0.309 ± 0.096.
With Q72L, the abundance fitness is -0.323 ± 0.14.
